Paper PMC4160023 (Nature, 2013)

Biological target: the molecule itself
Assay: negative-stain electron microscopy

B1: hRegIIIα E114Q mutant (natural protein, human, UniProt Q06141 38-175, looked up)
chain: IRCPKGSKAYGSHCYALFLSPKSWTDADLACQKRPSGNLVSVLSGAEGSFVSSLVKSIGNSYSYVWIGLHDPTQGTQPNGEGWEWSSSDVMNYFAWERNPSTISSPGHCASLSRSTAFLRWKDYNCNVRLPYVCKFTD
  binding result: binds
